Assay results from patent US20220363777A1 (GSP ENTERPRISE, published 2022).

Tests used:
[1] = target: T1, extracellular domain of human Cripto-1, soluble form, with N-terminal His-tag (human, limits assumed); assay: screening of a phage-displayed human antibody library
T1 construct: Prepared in soluble form by the method of Alam et al., Int J Mol Sci 2018; also called purified human Cripto-1; CR-1
T1 chain: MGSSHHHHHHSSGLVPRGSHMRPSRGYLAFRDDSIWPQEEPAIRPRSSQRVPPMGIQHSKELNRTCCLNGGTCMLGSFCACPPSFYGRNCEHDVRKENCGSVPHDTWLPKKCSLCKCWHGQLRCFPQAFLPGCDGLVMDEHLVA
Method: The extracellular domain of human Cripto-1 contains the amino acid sequence represented by SEQ ID NO: 11, and has a His-tag sequence having the amino acid sequence represented by SEQ ID NO: 12 at its N-terminus. The extracellular domain of human Cripto-1 was prepared in its soluble form in accordance with the method disclosed in Alam. et. al., Int J Mol Sci. 2018, 26; 19 (11). The antibody library used as a screening target is described in Sakai, K. et al., Biochemistry 46 (1): 253-62, and the subclass of the antibody is IgG.

[2] = target: T2, human Cripto-1 in human cancer tissue (tissue array BCN801) (human, UniProt P13385 31-150, GPI-anchor (thought to be bound to the cell membrane surface by GPI-anchors)); assay: immunostaining of a human cancer tissue array, ALEXA568-labeled anti-human IgG secondary antibody
T2 construct: whole, on cells; Endogenous protein detected by immunostaining of pancreas, thyroid, prostate, stomach, cervical, colorectal and breast cancer tissue; also called CR-1
T2 sequence (looked up): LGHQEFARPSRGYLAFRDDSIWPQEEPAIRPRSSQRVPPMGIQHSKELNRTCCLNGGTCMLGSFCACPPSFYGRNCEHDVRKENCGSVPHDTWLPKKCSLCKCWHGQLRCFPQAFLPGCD
Method: Immunostaining was performed on a human cancer tissue array (BCN801, US Biomax Inc.). The #35 clone was used as a primary antibody. ALEXA568-labeled anti-human IgG goat antibody (Invitrogen) was used as a secondary antibody to detect human Cripto-1 in each cancer tissue (pancreas cancer tissue, thyroid gland cancer tissue, prostate cancer tissue, stomach cancer tissue, cervical cancer tissue, colorectal cancer tissue, and breast cancer tissue). These cancer tissues contained cancer stem cells as well as cancer cells, and Cripto-1 was thought to be bound to the surface of the cell membrane of the cancer stem cells by GPI-anchors. In a negative control experiment, the signal background was confirmed by using only the secondary antibody. FIGS. 3 to 5 show the results.

B1: #35 clone antibody (human-derived anti-human Cripto-1 monoclonal antibody) (antibody, V domains shown)
VH: QVQLQQSGPGLVKPSQTLSLTCAISGNSVSSNSAAWNWIRRSPSRGLEWLGRTYYRSKWYNDYAVSVKSRITIKPDTSKNQFSLQLNSVTPEDTAMYYCARGFCSGGRCYSFDYWGPGTLVTVSS
VL: QSVLTQPASVSGSPGQSITISCTGTDSDVGAYGSASWYRHSPGKAPQLIIYDVTNRPSGVSNRFYGSKSGNTASLTISGLQAEDEADYYCQAWDSGIHVVFGGGTQLTVLG
notes: The library subclass is IgG; also called Clone #35
[1]
  binding result: binds
[2]
  binding result: binds
